Measured values from US20130039933.

Tests used:
[1] = molecular target: S366 peptide (STING peptide substrate with serine 366)
[2] = molecular target: A366 peptide (STING peptide substrate with alanine at 366)

Row | Protein | Activity (cpm) [1] [cpm] | Fold induction [1] [fold] | Activity (cpm) [2] [cpm]
1 | IKKα (protein) MERPPGLRPGAGGPWEMRERLGTGGFGNVCLYQHRELDLKIAIKSCRLELSTKNRERWCHEIQIMKKLNHANVVKACDVPEELNILIHDVPLLAMEYCSGGDLRKLLNKPENCCGLKESQILSLLSDIGSGIRYLHENKIIHRDLKPENIVLQDVGGKIIHKIIDLGYAKDVDQGSLCTSFVGTLQYLAPELFENKPYTATVDYWSFGTMVFECIAGYRPFLHHLQPFTWHEKIKKKDPKCIFACEEMSGEVRFSSHLPQPNSLCSLVVEPMENWLQLMLNWDPQQRGGPVDLTLKQPRCFVLMDHILNLKIVHILNMTSAKIISFLLPPDESLHSLQSRIERETGINTGSQELLSETGISLDPRKPASQCVLDGVRGCDSYMVYLFDKSKTVYEGPFASRSLSDCVNYIVQDSKIQLPIIQLRKVWAEAVHYVSGLKEDYSRLFQGQRAAMLSLLRYNANLTKMKNTLISASQQLKAKLEFFHKSIQLDLERYSEQMTYGISSEKMLKAWKEMEEKAIHYAEVGVIGYLEDQIMSLHAEIMELQKSPYGRRQGDLMESLEQRAIDLYKQLKHRPSDHSYSDSTEMVKIIVHTVQSQDRVLKELFGHLSKLLGCKQKIIDLLPKVEVALSNIKEADNTVMFMQGKRQKEIWHLLKIACTQSSARSLVGSSLEGAVTPQTSAWLPPTSAEHDHSLSCVVTPQDGETSAQMIEENLNCLGHLSTIIHEANEEQGNSMMNLDWSWLTE | 6890 | 2.83 | 2430
2 | IRAK4 (protein) MNKPITPSTYVRCLNVGLIRKLSDFIDPQEGWKKLAVAIKKPSGDDRYNQFHIRRFEALLQTGKSPTSELLFDWGTTNCTVGDLVDLLIQNEFFAPASLLLPDAVPKTANTLPSKEAITVQQKQMPFCDKDRTLMTPVQNLEQSYMPPDSSSPENKSLEVSDTRFHSFSFYELKNVTNNFDERPISVGGNKMGEGGFGVVYKGYVNNTTVAVKKLAAMVDITTEELKQQFDQEIKVMAKCQHENLVELLGFSSDGDDLCLVYVYMPNGSLLDRLSCLDGTPPLSWHMRCKIAQGAANGINFLHENHHIHRDIKSANILLDEAFTAKISDFGLARASEKFAQTVMTSRIVGTTAYMAPEALRGEITPKSDIYSFGVVLLEIITGLPAVDEHREPQLLLDIKEEIEDEEKTIEDYIDKKMNDADSTSVEAMYSVASQCLHEKKNKRPDIKKVQQLLQEMTAS | 50400 | 6.77 | 7440
3 | MEKK1 (protein) NQKCKEKMEAEEEEALAIAMAMSASQDALPIVPQLQVENGEDIIIIQQDTPETLPGHTKAKQPYREDTEWLKGQQIGLGAFSSCYQAQDVGTGTLMAVKQVTYVRNTSSEQEEVVEALREEIRMMSHLNHPNIIRMLGATCEKSNYNLFIEWMAGGSVAHLLSKYGAFKESVVINYTEQLLRGLSYLHENQIIHRDVKGANLLIDSTGQRLRIADFGAAARLASKGTGAGEFQGQLLGTIAFMAPEVLRGQQYGRSCDVWSVGCAIIEMACAKPPWNAEKHSNHLALIFKIASATTAPSIPSHLSPGLRDVALRCLELQPQDRPPSRELLKHPVFRTTW | 24900 | 2.2 | 11300
4 | NEK2 (protein) MPSRAEDYEVLYTIGTGSYGRCQKIRRKSDGKILVWKELDYGSMTEAEKQMLVSEVNLLRELKHPNIVRYYDRIIDRTNTTLYIVMEYCEGGDLASVITKGTKERQYLDEEFVLRVMTQLTLALKECHRRSDGGHTVLHRDLKPANVFLDGKQNVKLGDFGLARILNHDTSFAKTFVGTPYYMSPEQMNRMSYNEKSDIWSLGCLLYELCALMPPFTAFSQKELAGKIREGKFRRIPYRYSDELNEIITRMLNLKDYHRPSVEEILENPLIADLVADEQRRNLERRGRQLGEPEKSQDSSPVLSELKLKEIQLQERERALKAREERLEQKEQELCVRERLAEDKLARAENLLKNYSLLKERKFLSLASNPELLNLPSSVIKKKVHFSGESKENIMRSENSESQLTSKSKCKDLKKRLHAAQLRAQALSDIEKNYQLKSRQILGMR | 162000 | 18.6 | 8700
5 | NEK9 (protein) MSVLGEYERHCDSINSDFGSESGGCGDSSPGPSASQGPRAGGGAAEQEELHYIPIRVLGRGAFGEATLYRRTEDDSLVVWKEVDLTRLSEKERRDALNEIVILALLQHDNIIAYYNHFMDNTTLLIELEYCNGGNLYDKILRQKDKLFEEEMVVWYLFQIVSAVSCIHKAGILHRDIKTLNIFLTKANLIKLGDYGLAKKLNSEYSMAETLVGTPYYMSPELCQGVKYNFKSDIWAVGCVIFELLTLKRTFDATNPLNLCVKIVQGIRAMEVDSSQYSLELIQMVHSCLDQDPEQRPTADELLDRPLLRKRRREMEEKVTLLNAPTKRPRSSTVTEAPIAVVTSRTSEVYVWGGGKSTPQKLDVIKSGCSARQVCAGNTHFAVVTVEKELYTWVNMQGGTKLHGQLGHGDKASYRQPKHVEKLQGKAIRQVSCGDDFTVCVTDEGQLYAFGSDYYGCMGVDKVAGPEVLEPMQLNFFLSNPVEQVSCGDNHVVVLTRNKEVYSWGCGEYGRLGLDSEEDYYTPQKVDVPKALIIVAVQCGCDGTFLLTQSGKVLACGLNEFNKLGLNQCMSGIINHEAYHEVPYTTSFTLAKQLSFYKIRTIAPGKTHTAAIDERGRLLTFGCNKCGQLGVGNYKKRLGINLLGGPLGGKQVIRVSCGDEFTIAATDDNHIFAWGNGGNGRLAMTPTERPHGSDICTSWPRPIFGSLHHVPDLSCRGWHTILIVEKVLNSKTIRSNSSGLSIGTVFQSSSPGGGGGGGGGEEEDSQQESETPDPSGGFRGTMEADRGMEGLISPTEAMGNSNGASSSCPGWLRKELENAEFIPMPDSPSPLSAAFSESEKDTLPYEELQGLKVASEAPLEHKPQVEASSPRLNPAVTCAGKGTPLTPPACACSSLQVEVERLQGLVLKCLAEQQKLQQENLQIFTQLQKLNKKLEGGQQVGMHSKGTQTAKEEMEMDPKPDLDSDSWCLLGTDSCRPSL | 26300 | 3.77 | 6980
6 | PKCι (protein) MPTQRDSSTMSHTVAGGGSGDHSHQVRVKAYYRGDIMITHFEPSISFEGLCNEVRDMCSFDNEQLFTMKWIDEEGDPCTVSSQLELEEAFRLYELNKDSELLIHVFPCVPERPGMPCPGEDKSIYRRGARRWRKLYCANGHTFQAKRFNRRAHCAICTDRIWGLGRQGYKCINCKLLVHKKCHKLVTIECGRHSLPQEPVMPMDQSSMHSDHAQTVIPYNPSSHESLDQVGEEKEAMNTRESGKASSSLGLQDFDLLRVIGRGSYAKVLLVRLKKTDRIYAMKVVKKELVNDDEDIDWVQTEKHVFEQASNHPFLVGLHSCFQTESRLFFVIEYVNGGDLMFHMQRQRKLPEEHARFYSAEISLALNYLHERGIIYRDLKLDNVLLDSEGHIKLTDYGMCKEGLRPGDTTSTFCGTPNYIAPEILRGEDYGFSVDWWALGVLMFEMMAGRSPFDIVGSSDNPDQNTEDYLFQVILEKQIRIPRSLSVKAASVLKSFLNKDPKERLGCHPQTGFADIQGHPFFRNVDWDMMEQKQVVPPFKPNISGEFGLDNFDSQFTNEPVQLTPDDDDIVRKIDQSEFEGFEYINPLLMSAEECV | 12800 | 1.88 | 6810
7 | RIPK5 (protein) FAASLRQLEAGHSGRLEKTEDLWLRVRKDHAPRLARLSLESCSLQDVLLHRKPKLGQELGRGQYGVVYLCDNWGGHFPCALKSVVPPDEKHWNDLALEFHYMRSLPKHERLVDLHGSVIDYNYGGGSSIAVLLIMERLHRDLYTGLKAGLTLETRLQIALDVVEGIRFLHSQGLVHRDIKLKNVLLDKQNRAKITDLGFCKPEAMMSGSIVGTPIHMAPELFTGKYDNSVDVYAFGILFWYICSGSVKLPEAFERCASKDHLWNNVRRGARPERLPVFDEECWQLMEACWDGDPLKRPLLGIVQPMLQGIMNRLCKSNSEQPNRGLDDST | 16000 | 12 | 1330
